Results on 8 molecules are retold here after patent US20210206877A1 (Genentech, published 2021).

For the test, the target named is BACE1 endogenous to primary cortical neurons from E16.5 CD1 mice (mouse, UniProt P56818 46-501). The test is described as follows: cell-based or functional assay.
Chain of BACE1 endogenous to primary cortical neurons from E16.5 CD1 mice (P56818 46-501): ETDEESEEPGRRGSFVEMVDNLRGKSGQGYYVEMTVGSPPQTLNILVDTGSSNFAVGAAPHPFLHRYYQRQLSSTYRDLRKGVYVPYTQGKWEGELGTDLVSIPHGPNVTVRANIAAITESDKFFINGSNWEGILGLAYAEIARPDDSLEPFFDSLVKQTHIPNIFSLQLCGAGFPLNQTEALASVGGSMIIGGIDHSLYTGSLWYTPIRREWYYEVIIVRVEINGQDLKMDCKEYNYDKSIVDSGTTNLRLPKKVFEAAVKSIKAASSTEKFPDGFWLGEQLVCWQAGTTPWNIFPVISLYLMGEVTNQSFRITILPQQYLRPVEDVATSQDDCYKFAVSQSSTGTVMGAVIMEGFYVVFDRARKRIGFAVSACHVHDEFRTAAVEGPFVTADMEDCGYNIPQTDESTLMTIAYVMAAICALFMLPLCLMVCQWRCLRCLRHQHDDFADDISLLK

B1: 5930 (antibody, V domains shown)
VH: QVQLVQSGAEVKKPGSSVKVSCKASGGTLSGYAISWVRQAPGQGLEWMGNIIPGFGTANYAQKSQGRVTITADESTSTAYMELSSLRSEDTAVYYCARSGGTRYGMLDVWGQGTMVTVSS
VL: EIVMTQSPATLSVSPGERATLSCRASQSVGSNLAWYQQKPGQAPRLLIYGASTRATGIPARFSGSGSGTEFTLTISSLQSEDFAVYYCQQLYTWPPRTFGGGTKVEIK
Consider B1, for which the “max % inhibition, Abeta x-40 in mouse cortical neurons” value (from here on “max % inhibition”) came out at 74%.

B2: 6274 (antibody, V domains shown)
VH: QVQLVQSGAEVKKPGSSVKVSCKASGGTFSGYGISWVRQAPGQGLEWMGNIIPGFGTANYAQKFQGRVTITADESTSTAYMELSSLRSEDTAVYYCARSGGTKYGMLDVWGQGTMVTVSS
VL: EIVMTQSPATLSVSPGERATLSCRASQSVSSHLAWYQQKPGQAPRLLIYGASTRATGIPARFSGSGSGTEFTLTISSLQSEDFAVYYCQQLILWPPRTFGGGTKVEIK
Consider B2, for which the “max % inhibition” value was 85%.

B3: 6273 (antibody, V domains shown)
VH: QVQLVQSGAEVKKPGSSVKVSCKASGGTFSGYGISWVRQAPGQGLEWMGNIIPGFGTANYAQKFQGRVTITADESTSTAYMELSSLRSEDTAVYYCARSGGTKYGMLDVWGQGTMVTVSS
VL: EIVMTQSPATLSVSPGERATLSCRASQSVSSNIAWYQQKPGQAPRLLIYGASTRATGIPARFSGSGSGTEFTLTISSLQSEDFAVYYCQQLLLWPPRTFGGGTKVEIK
As to B3, the “max % inhibition” value was 82%.

B4: 6272 (antibody, V domains shown)
VH: QVQLVQSGAEVKKPGSSVKVSCKASGGTFSGYGISWVRQAPGQGLEWMGNIIPGFGTANYAQKFQGRVTITADESTSTAYMELSSLRSEDTAVYYCARSGGTKYGMLDVWGQGTMVTVSS
VL: EIVMTQSPATLSVSPGERATLSCRASQSVSSNLAWYQQKPGQAPRLLIYGASTRATGIPARFSGSGSGTEFTLTISSLQSEDFAVYYCQQLFLWPPRTFGGGTKVEIK
Turning to B4, the “max % inhibition” value turned out to be 82%.

B5: 5988 (antibody, V domains shown)
VH: QVQLVQSGAEVKKPGSSVKVSCKASGGTLSGYAISWVRQAPGQGLEWMGNIIPGFGTANYAQKSQGRVTITADESTSTAYMELSSLRSEDTAVYYCARSGGTRYGMLDVWGQGTMVTVSS
VL: GIVMTQSPATLSVSPGERATLSCRASQSVGSNLAWYQQKPGQAPRLLIYGASTRATGIPARFSGSGSGTEFTLTISSLQSEDFAVYYCQQLYTWPPRTFGGGTKVEIK
Take B5: the “max % inhibition” value came out at 75%.

B6: 5987 (antibody, V domains shown)
VH: QVQLVQSGAEVKKPGSSVKVSCKASGGTLSGYAISWVRQAPGQGLEWMGNIIPGFGTANYAQKSQGRVTITADESTSTAYMELSSLRSEDTAVYYCARSGGTRYGMLDVWGQGTMVTVSS
VL: EIVMTQSPATLSVSPGERATLSCRASQSVSSNLAWYQQKPGQAPRLLIYGASTRATGIPARFSGSGSGTEFTLTISSLQSEDFAVYYCQQLFLWPPRTFGGGTKVEIK
As for B6, the “max % inhibition” value was determined as 69%.

B7: 6271 (antibody, V domains shown)
VH: QVQLVQSGAEVKKPGSSVKVSCKASGGTISGYGISWVRQAPGQGLEWMGNIIPGFGTANYAQKFQGRVTITADESTSTAYMELSSLRSEDTAVYYCARSGGTKYGMLDVWGQGTMVTVSS
VL: EIVMTQSPATLSVSPGERATLSCRASQSVSSNLAWYQQKPGQAPRLLIYGASTRATGIPARFSGSGSGTEFTLTISSLQSEDFAVYYCQQLILWPPRTFGGGTKVEIK
As to B7, the “max % inhibition” value was 83%.

B8: 6270 (antibody, V domains shown)
VH: QVQLVQSGAEVKKPGSSVKVSCKASGGTFSGYGISWVRQAPGQGLEWMGNIIPGFGTANYAQKFQGRVTITADESTSTAYMELSSLRSEDTAVYYCARSGGTKYGMLDVWGQGTMVTVSS
VL: EIVMTQSPATLSVSPGERATLSCRASQSVSSNLAWYQQKPGQAPRLLIYGASTRATGIPARFSGSGSGTEFTLTISSLQSEDFAVYYCQQLLLWPPRTFGGGTKVEIK
Consider B8, for which the “max % inhibition” value was 85%.
